Experimental data from PMC8153730 (Science Advances, 2021).

What was measured:
[1] = molecular target: recombinant His BRD4 (1-477aa) (UniProt O60885 1-477); experiment: ELISA
[2] = molecular target: His-Sumo BRD4 (1-477aa) wild type, not methylated (UniProt O60885 1-477); experiment: ELISA

binding result [1] | binding result [2] | Binder
binds |  | recombinant glutathione S-transferase (GST) SETD6 (enzyme) MATQAKRPRVAGPVDGGDLDPVACFLSWCRRVGLELSPKVSERAGGRRTRGGARAALTSPPAQVAVSRQGTVAGYGMVARESVQAGELLFVVPRAALLSQHTCSIGGLLERERVALQSQSGWVPLLLALLHELQAPASRWRPYFALWPELGRLEHPMFWPEEERRCLLQGTGVPEAVEKDLANIRSEYQSIVLPFMEAHPDLFSLRVRSLELYHQLVALVMAYSFQEPLEEEEDEKEPNSPVMVPAADILNHLANHNANLEYSANCLRMVATQPIPKGHEIFNTYGQMANWQLIHMYGFVEPYPDNTDDTADIQMVTVREAALQGTKTEAERHLVYERWDFLCKLEMVGEEGAFVIGREEVLTEEELTTTLKVLCMPAEEFRELKDQDGGGDDKREEGSLTITNIPKLKASWRQLLQNSVLLTLQTYATDLKTDQGLLSNKEVYAKLSWREQQALQVRYGQKMILHQLLELTS
 | binds | His E2F1 (natural protein) not shown
